The values below come from patent US20170073408A1 (Amgen, published 2017).

In assay [1] the target is T1, recombinant human activin A (mature) (human, UniProt P08476 311-426).
T1 sequence: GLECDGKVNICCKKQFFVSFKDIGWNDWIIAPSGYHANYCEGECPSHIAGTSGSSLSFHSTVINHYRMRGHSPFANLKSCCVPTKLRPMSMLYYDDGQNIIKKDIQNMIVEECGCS
Put plainly: cell-based or functional assay.

Assay [2] deals with T2, activin B (UniProt P09529 293-407).
T2 construct: Bought (R & D Systems)
T2 sequence (looked up): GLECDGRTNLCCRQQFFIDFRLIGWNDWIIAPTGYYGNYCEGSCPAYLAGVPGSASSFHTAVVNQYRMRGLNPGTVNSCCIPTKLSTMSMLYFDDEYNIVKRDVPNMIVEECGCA
The assay is described as follows: affinity analysis of Example 15 (antibody immobilized on a surface).

In assay [3] the target is T1, recombinant human activin A (mature). Put plainly: KinExA solution equilibrium, activin A-coated beads. The procedure: Solution-based equilibrium-binding assays using KinExA™ technology (Sapidyne Instruments, Inc.) were used to determine the dissociation equilibrium (KD) of activin A binding to antibody molecules. This solution-based assay is considered to be more sensitive than the BIAcore assay in some instances. Reacti-Gel™ 6× was pre-coated with about 50 μg/ml activin A overnight, and then blocked with BSA. 30 pM and 100 pM of antibody samples were incubated with various concentrations (0.5 pM to 5 nM) of activin A in sample buffer at room temperature for 8 hours before being run through the activin A-coated beads. The amount of the bead-bound antibody was quantified by fluorescent (Cy5) labeled goat anti-human-Fc antibody at 1 mg/ml in superblock. The binding signal was proportional to the concentration of free antibody at equilibrium with a given activin A concentration. KD was obtained from the nonlinear regression of the competition curves using a dual-curve one-site homogeneous binding model provided in the KinEx ATM software (Sapidyne Instruments, Inc.). […] A2 and A3 bound to activin A at ˜15 pM and ˜8 pM, respectively.

For assay [4], the target named is T3, BMP4 (UniProt P12644 293-408).
T3 construct: Bought
T3 sequence (looked up): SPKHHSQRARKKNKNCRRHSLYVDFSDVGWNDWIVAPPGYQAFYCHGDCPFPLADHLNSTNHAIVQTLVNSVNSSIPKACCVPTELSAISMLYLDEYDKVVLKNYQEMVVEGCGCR
Put plainly: BIAcore, antibody pre-incubated with ligand, ActRIIB/Fc on chip. The procedure: (§1) These assays were performed using BlAcore® technology, to determine the selectivity of binding of antibodies A1, A2 and A3 to various activins and other TGF-β family members, including activin A, activin B, activin AB, inhibin A, GDF-8, GDF-11, TGF-β-1, TGF-β-3, and BMP4 (all from R & D Systems). […] Because BlAcore assays detect changes in the refractive index, the difference between the response detected with injection over the immobilized receptor surfaces compared with the response detected with injection over the control surface in the absence of any antibody represents the actual binding of the various ligands to the receptor. With pre-incubation of antibodies and activin and TGF-β molecules, a change (increase or decrease) in binding response indicates antibody binding to the TGFβ family of molecules. The antibodies all bound to activin A but not to activin B, GDF-8, GDF-11, TGF-β-1, TGF-β-3, and BMP4, thus indicating specificity for activin A.
In general terms: SPR reads the build-up and loss of mass on a sensor chip optically.

In assay [5] the target is T4, TGF-β-3 (UniProt P10600 301-412).
T4 construct: Bought
T4 sequence (looked up): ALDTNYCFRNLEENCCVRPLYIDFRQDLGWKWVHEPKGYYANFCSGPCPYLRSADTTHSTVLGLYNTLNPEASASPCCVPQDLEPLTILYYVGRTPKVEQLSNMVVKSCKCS
Described as above. On the procedure: as §1

Assay [6] deals with T5, TGF-β-1 (UniProt P01137 279-390).
T5 construct: Bought
The description is as above. On the procedure: as §1

In assay [7] the target is T6, GDF-11 (UniProt O95390 299-407).
T6 construct: Bought
T6 sequence (looked up): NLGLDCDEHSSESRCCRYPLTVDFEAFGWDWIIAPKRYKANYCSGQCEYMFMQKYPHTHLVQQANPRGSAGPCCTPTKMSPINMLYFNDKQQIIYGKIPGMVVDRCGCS
Described as above. The procedure: as §1

Assay [8] addresses T7, GDF-8 (UniProt O14793 267-375).
T7 construct: Bought
T7 sequence (looked up): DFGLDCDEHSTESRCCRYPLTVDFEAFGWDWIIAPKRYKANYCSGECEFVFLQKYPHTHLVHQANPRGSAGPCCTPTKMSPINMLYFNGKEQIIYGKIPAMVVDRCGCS
Described as above. On the procedure: as §1

The target of assay [9] is T8, A/B13-39.
T8 construct: also called Activin A 13/39 B
T8 activin A/B chimeric subunit: T1 sequence with K13R, K14Q, V18I, S19D, K21R, D22L, S33T, H36Y, A37G
The assay is described as follows: Biacore blocking: 100 nM antibody + diluted conditioned medium (CM) of the ligand over ActRIB-Fc surface.

Assay [10] concerns the target T9, A/B82-107.
T9 activin A/B chimeric subunit: T1 sequence with V82I, R87S, P88T, Y94F, G97E, Q98Y, I101V, K103R, I105V, Q106P
The assay is described as above.

For assay [11], the target named is T1, recombinant human activin A (mature). The assay is described as follows: affinity analysis of Example 15 (method of the KD not given).
The target is the same in assay [12]. The assay is described as follows: Biacore premix competition: 2 nM rhActivinA + 20 nM antibody over immobilized AKA1.

Usually Kd stands for the constant that tells how readily two partners part at equilibrium.

Numbering of substitutions follows the chain as printed.

T5 sequence (P01137 279-390 limits assumed): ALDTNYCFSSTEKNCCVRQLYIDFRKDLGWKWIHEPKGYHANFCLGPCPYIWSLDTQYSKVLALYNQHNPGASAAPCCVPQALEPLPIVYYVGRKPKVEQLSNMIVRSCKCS

B1: anti-activin A monoclonal antibody A3 (antibody, human IgG2, kappa, V domains shown)
VH: EVQLVESGGGLVQPGGSLRLSCAASGFTFSSYWMSWVRQAPGKGLECVANIKQDGSEEYYVDSVKGRFTISRDNAKNSLYLQMNSLRAEDTAVYYCARGSSSWYYYNYGMDVWGQGTTVTVSS
VL: DIQMTQSPSSLSASVGDRVTITCRASQGIRNDLGWYQQKPGKAPKRLIYAASSLQSGVPSRFSGSGSGTEFTLTISSLQPEDFATYYCRQQNTYPLTFGGGTKVEIKR
notes: Fully human antibody from XenoMouse hybridoma; also called L3H3
For B1, in [1], the “Cell IC50 (nM); luciferase activity of C2C12/pMARE reporter cells, activin A fixed at 4 nM” value is under 3 nM. The binding result in [2], in assay [4], in assay [5], in [6], in [7] and in [8] was “no binding” in each case. The binding result in assay [9] was “binds”; in [10], “no binding (tested: 100 nM)”. Besides, the Kd in [3] is about 8 pM; in assay [11] it was about 11 pM.

B2: A6 (antibody, V domains shown)
VH: QVQLQQWGAGLLKPSETLSLTCAVYGGSFSAYYWSWIRQPPGKGLEWIGEINHSGGTNYNPSLKSRVTISVDTSKNQFSLKLSSVTAADTAVYYCARVQWLELAYFDYWGQGTLVTVSS
VL: DIQMTQSPSSLSASVGDRVTITCRASQSISNYLNWYQQRPGKAPKLLIYATSSLQSGVPSRFSGSGSGTDFTLTISSLQPEDFVSYYCQQSYSISPTFGGGTKVENK
notes: also called antibody A6; L6H6
Take B2: the binding result in [12], in [9] and in assay [10] was “binds” throughout.

B3: A7 (antibody, V domains shown)
VH: QVQLVDSGGGVVQPGRSLRLSCAASGFTFISYGMHWVRQAPGKGLEWVAVIWYDGSTEYYADSVKGRFTISRDNSKNTLYLQMNSLRAEDTAVYYCARERQWLYHYGMDVWGQGTTVTVSS
VL: DIQMTQSPSSLSASVGDRVTITCRAGQGIRNDLVWYQQKPGKAPKRLIYAASSLQSGVPSRFSGSGSGTEFTLTISSLQPEDFATYYCLQHNTYPFTFGPGTKVDIK
notes: also called antibody A7; L7H7
B3: the binding result is “binds” in assay [12], “binds” in [9] and “no binding (tested: 100 nM)” in assay [10].

B4: A9 (antibody, V domains shown)
VH: QVQLVESGGGVVQPGRSLRLSCAASGFTFSSYGMHWVRQAPGKGLEWVAVIWYDGSNKYHADSVKGRFTISRDNSKNTLYLQVNSLRAEDTAVYYCVRSRNWNYDNYYYGLDVWGQGTTVTVSS
VL: B3 VL with G26S, D32N, V34G, A84T, T93S, F96W, P100Q, D105E
notes: also called antibody A9; L9H9
Take B4: the binding result is “binds” in assay [9] and “no binding (tested: 100 nM)” in assay [10].

B5: A13 (antibody, V domains shown)
VH: QVQLVQSGAEVKKPGASVKVSCKASGYTFTSYGISWVRQAPGQGLERMGWISAYNGNTNYAQKFQGRVTMTTDTSTTTAYMELRSLRSDDTAVYYCARDQDYYDSSGWGHWGQGTLVTVSS
VL: SYELTQPPSVSVSPGQTASITCSGDKLGDKYVCWYQQKPGQSPELVIYLDNKRPSGIPERFSGSNSGNTATLTISGTQAMDEADYYCQAWDSSTVFGGGTKLTVL
notes: also called antibody A13; L13H13
B5: the binding result in [12], in assay [9] and in assay [10] was “binds” throughout.

B6: A14 (antibody, V domains shown)
VH: B5 VH with A24T, R47W, A53P, T74K, T77S, G109D, H110P
VL: B5 VL with V32A, C33F, E44V, I47F, L49H, N51T, Y86H
notes: also called antibody A14; L14H14
For B6, the binding result in assay [12] is listed as “binds”; in assay [9] it was “no binding (tested: 100 nM)”; in assay [10] it was “binds”.

B7: A8 (antibody, V domains shown)
VH: QVQLQESGPGLVKPSETLSLTCTVSGGSINSFYWSWIRQPPGKGLEWIGYIYYSGSTNYNPSLKRRVTISVDTSKTQFSLKLSSVTAADTAVYYCARDSIAAPFDYWGQGTLVTVSS
VL: DIVMTQSPDSLAVSLGERATITCKSSQSILYSSNNKKYLVWYQQKPGQPPKLIIYWTSMRESGVPDRFSGSGSGTDFTLTISSLQAEDVAVYYCQQYYSTPWTFGQGTKVEIK
notes: also called antibody A8; L8H8
On to B7, for which the binding result in [12], in [9] and in assay [10] was “binds” throughout.

B8: A5 (antibody, V domains shown)
VH: B7 VH with R65S
VL: B7 VL with S82N
notes: also called antibody A5; L5H5
For the molecule B8, the binding result in assay [12], in [9] and in assay [10] was “binds” throughout.
